Measured values: the supplement of paper PMC12667976
± gives the standard error.

B1: library; numbered along this chain (parent)
chain: MATDAALRRLLRLHRTEIAVAVDSAFPLLHALADHDVVPEDKFQETLHLKEKEGCPQAFHALLSWLLTQDSTAILDFWRVLFKDYNLERYGRLQPILDSFPKDVDLSQPRKGRKPPAVPKALVPPPRLPTKRKASEEARAAAPAALTPRGTASPGSQLKAKPPKKPESSAEQQRLPLGNGIQTMSASVQRAVAMSSGDVPGARGAVEGILIQQVFESGGSKKCIQVGGEFYTPSKFEDSGSGKNKARSSSGPKPLVRAKGAQGAAPGGGEARLGQQGSVPAPLALPSDPQLHQKNEDECAVCRDGGELICCDGCPRAFHLACLSPPLREIPSGTWRCSSCLQATVQEVQPRAEEPRPQEPPVETPLPPGLRSAGEEVRGPPGEPLAGMDTTLVYKHLPAPPSAAPLPGLDSSALHPLLCVGPEGQQNLAPGARCGVCGDGTDVLRCTHCAAAFHWRCHFPAGTSRPGTGLRCRSCSGDVTPAPVEGVLAPSPARLAPGPAKDDTASHEPALHRDDLESLLSEHTFDGILQWAIQSMARPAAPFPS

Variants of: B1
Assay: AIRE transcriptional activation functional score (insulin promoter-GFP; nonsense median 0, synonymous median 1) (normalised score); higher = higher AIRE activity (more reporter activation)
Conditions: with insulin promoter-GFP reporter in HEK293
Protocol: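 Deep mutational scan of full-length human AIRE (codon-optimized cDNA, DT-POPCode NNN libraries over three regions) integrated at a Bxb1 landing pad in HEK293 cells carrying an insulin core promoter-GFP reporter at a Flp-In site. Cells were sorted for the top 10% GFP about 14 days after transfection. Variant frequency log-ratios (select vs non-select, TileSeq) were rescaled so that the nonsense median is 0 and the synonymous median is 1, then averaged over biological replicates.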

AIRE transcriptional activation functional score: each site, then its substitutions
G228: L -1.11 ± 0.33 | R 1.26 ± 0.3 | V 0.421 ± 0.28 | P 0.904 ± 0.33 | Q -1.12 ± 0.25 | N 1.51 ± 0.18 | H -2 ± 0.29 | T 1.57 ± 0.23 | I -0.341 ± 0.56 | D 1.05 ± 0.17 | C 0.71 ± 0.39 | W -0.356 ± 0.059 | F 0.331 ± 0.12 | Y 0.381 ± 0.37 | A 0.509 ± 0.13 | K 0.799 ± 0.39 | E 0.668 ± 0.36 | S 0.591 ± 0.44
T232: C 0.594 ± 0.23 | A 0.926 ± 0.13 | D 1.19 ± 0.14
G218: T 1.11 ± 0.54 | N 0.111 ± 0.11 | S 0.817 ± 0.31 | F 0.259 ± 0.13 | A 1.02 ± 0.25 | R 1.13 ± 0.25 | P 0.651 ± 0.19 | H 1.03 ± 0.086 | I 1.14 ± 0.14 | L 1.01 ± 0.17 | M 1.01 ± 0.069 | K 0.888 ± 0.1 | V 1.1 ± 0.18 | W -0.332 ± 0.1 | Q -0.344 ± 0.048 | C 0.887 ± 0.22 | Y 0.677 ± 0.28 | D 0.885 ± 0.14 | E -0.051 ± 0.083
G227: P 0.459 ± 0.12 | R 0.425 ± 0.44 | K 0.245 ± 0.1 | A 0.503 ± 0.21 | E 0.368 ± 0.087 | V 0.378 ± 0.5 | I -0.209 ± 0.36 | Q 1.02 ± 0.26 | F -0.195 ± 0.43 | L 0.445 ± 0.48 | T -0.68 ± 0.35 | W 0.742 ± 0.041 | S 0.225 ± 0.36 | H 0.263 ± 0.3 | Y 0.111 ± 0.25 | N 0.587 ± 0.32 | M -1.01 ± 0.066 | C 0.85 ± 0.24
V214: G 0.556 ± 0.29 | R 0.66 ± 0.11 | C 1.01 ± 0.054 | I 0.735 ± 0.18 | F 1.01 ± 0.2 | S 0.447 ± 0.32 | L 0.413 ± 0.73 | H 0.137 ± 0.25 | M 0.284 ± 0.11 | P 0.238 ± 0.098 | E 0.383 ± 0.1 | A 0.717 ± 0.19 | Y 1.25 ± 0.04 | W 0.402 ± 0.049
Q213: P 0.531 ± 0.13 | N 0.805 ± 0.077 | S 0.639 ± 0.2 | V -0.393 ± 0.15 | R 0.637 ± 0.33 | T 0.965 ± 0.1 | Y 1.23 ± 0.2 | W -1.06 ± 0.29
F230: H 0.48 ± 0.089 | S 0.473 ± 0.15 | A 0.596 ± 0.17 | Q 0.665 ± 0.046 | V 0.617 ± 0.11 | L 0.774 ± 0.16 | M 0.801 ± 0.15 | E 0.377 ± 0.23 | W 0.97 ± 0.041 | G 0.617 ± 0.19 | T 0.761 ± 0.38 | P 0.293 ± 0.47 | R 0.603 ± 0.38 | K 0.376 ± 0.08 | I 0.507 ± 0.29 | C 0.611 ± 0.09 | Y 0.502 ± 0.27 | D 0.723 ± 0.12 | N 0.425 ± 0.38
Y231: N 0.775 ± 0.13 | V 0.771 ± 0.16 | L 0.803 ± 0.15 | C 0.601 ± 0.069 | D 0.734 ± 0.077 | S 0.49 ± 0.12 | E 0.639 ± 0.14 | K 0.204 ± 0.054 | H 0.724 ± 0.039 | F 1.05 ± 0.094 | T 0.493 ± 0.17 | I 0.701 ± 0.1 | Q 0.625 ± 0.18 | A 0.676 ± 0.27 | W 1.05 ± 0.014 | G 0.475 ± 0.11 | M 0.624 ± 0.023 | R 0.669 ± 0.13 | P 0.54 ± 0.36
S220: E 1.14 ± 0.046 | R 1.06 ± 0.37 | M 1.16 ± 0.036 | V 0.743 ± 0.84 | P -0.127 ± 0.15 | L 1.04 ± 0.25 | C 1.21 ± 0.032 | T 0.905 ± 0.032 | W -1.37 ± 0.28 | A 0.262 ± 0.063 | Y -0.203 ± 0.11 | D 0.488 ± 0.084 | I 0.449 ± 0.49 | G 0.764 ± 0.19 | Q -1.55 ± 0.21 | F 0.305 ± 0.062
C223: N 0.407 ± 0.086 | V 0.923 ± 0.11 | Y 0.577 ± 0.15 | R 0.797 ± 0.39 | T 1.15 ± 0.36 | H 0.784 ± 0.27 | I 0.0416 ± 0.48 | M 0.937 ± 0.17 | W -0.0978 ± 0.045 | E 0.793 ± 0.14 | K 0.604 ± 0.12 | Q 0.474 ± 0.13 | A 0.737 ± 0.23 | D 0.503 ± 0.14 | G 0.803 ± 0.22 | F 0.324 ± 0.39 | L 0.844 ± 0.29 | S 0.477 ± 0.24 | P 0.562 ± 0.33
Q225: S 0.993 ± 0.35 | H 0.951 ± 0.054 | Y -0.259 ± 0.17 | K 1.23 ± 0.028 | C -0.424 ± 0.056 | V -0.115 ± 0.27 | P 0.572 ± 0.47 | F -0.00208 ± 0.1 | M -0.00432 ± 0.073 | D 0.269 ± 0.14 | N 0.762 ± 0.14 | R 0.916 ± 0.2 | G 0.56 ± 0.37 | T 0.688 ± 0.18
